In patent publication US9803013B2, “Biological materials and uses thereof” (BioInvent International AB, priority 2005, dated 2017):

Columns and labels:
[1] = tested on: MDA MB 435; assay: IgG binding to tumour cell line, flow cytometry MFI; set-up: species or system human; conditions: MDA MB 435, Melanoma
Description: The antigen distribution of human antibody targeted antigens, mainly for B11, on different carcinoma cell lines was investigated. Cells (MCF-7 and MDA MB 435S breast carcinoma, JAR and JEG-3 chorio-carcinoma, A549 lung carcinoma, TCC-SUP urinary bladder carcinoma, MDA MB 435 melanoma, HPAC, PANC-1 and BxPC-3 pancreatic carcinoma, PC-3 and DU145 prostate carcinoma, LS174 T, CaCo2, and Lovo colorectal carcinoma, and THP-1 monocytic leukaemia cells), were washed in PBS, and resuspended at 4×10^6 cells/ml in Complete Medium (200,000 cells/50 […] sample). […] Cells were incubated with either of the antibodies for 1 hour on ice, washed by resuspension in PBS/BSA 0.5%, centrifuged at 1200 rpm for 5 min, and complete aspiration of the supernatants was undertaken. Cells were incubated with PE-conjugated Goat F(ab′)2 anti-Human IgG (Caltag Laboratories, Cat no: H10104), diluted 1/50 in PBS/BSA 0.5%, for 30 min, on ice. Following resuspension of in 300 μl PBS/BSA 0.5%, cells were analysed for IgG binding using a FACScan instrument.

[2] = target: T1, ICAM-3 (Homo sapiens, UniProt P32942); assay: Binding to recombinant ICAM family protein
T1 sequence (P32942 30-547): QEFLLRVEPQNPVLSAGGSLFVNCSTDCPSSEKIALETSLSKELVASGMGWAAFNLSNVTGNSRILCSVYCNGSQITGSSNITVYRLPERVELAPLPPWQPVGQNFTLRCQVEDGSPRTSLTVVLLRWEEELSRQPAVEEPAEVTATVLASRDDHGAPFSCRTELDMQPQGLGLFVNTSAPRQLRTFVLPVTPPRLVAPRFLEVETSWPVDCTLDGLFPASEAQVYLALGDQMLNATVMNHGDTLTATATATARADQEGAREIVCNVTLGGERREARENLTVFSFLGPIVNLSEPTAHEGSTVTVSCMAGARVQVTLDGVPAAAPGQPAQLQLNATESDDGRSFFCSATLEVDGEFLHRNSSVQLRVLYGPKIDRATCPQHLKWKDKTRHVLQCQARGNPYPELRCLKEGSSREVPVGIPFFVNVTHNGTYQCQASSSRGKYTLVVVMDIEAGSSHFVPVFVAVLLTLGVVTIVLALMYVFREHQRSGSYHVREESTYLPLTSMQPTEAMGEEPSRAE

[3] = tested on: RPMI-8226 myeloma cells; assay: Advanced disseminated MM model, i.v. grafted RPMI-8226 in SCID mice; type: in vivo, mouse; conditions: 2 mg/kg from five days after i.v. grafting; compared to bortezomib, lenalidomide, melphalan or dexamethasone
Description: To assess the therapeutic potential of BI-505 for treatment of MM, the anti-myeloma effects of BI-505 were compared to current gold-standard treatment in disseminated experimental models of MM sharing characteristics with human disease. These models resemble the manifestation and progression of human MM disease in many respects, including tumor dissemination and establishment in bone marrow, and the appearance of osteolytic bone-lesions and hypercalcemia (Mitsiades et al., 2003; Yaccoby et al., 1998). Firstly, the anti-myeloma activity of BI-505 was compared with currently used treatments in an advanced disseminated MM model comprising RPMI-8226 myeloma cells. In this model, therapeutic treatment with 2 mg/kg BI-505 was started five days after intravenous grafting of MM cells to allow for homing and establishment of MM cells in bone marrow.
All studies were conducted in accordance with guidelines of the Lund University Hospital, Sweden or University of Utah, Salt Lake City, USA following approval from the local ethical committee for animal care and use. […] The role of macrophages and NK cells for BI-505 in vivo antitumor activity was assessed using anti-asialo antibody treatment, clodronate liposome treatment or NK-cell deficient mice. […]

B1: B11: fully human IgG1 antibody specific for ICAM-1; VH and VL sequences of FIG. 10 (SEQ ID NOs. 6 and 8) (antibody, listed as Homo sapiens, V domains shown)
VH: EVQLLESGGGLVQPGGSLRLSCAASGFTFSNAWMSWVRQAPGKGLEWVAFIWYDGSNKYYADSVKGRFTISRDNSKNTLYLQMNSLRAEDTAVYYCARYSGWYFDYWGQGTLVTVSS
VL: QSVLTQPPSASGTPGQRVTISCTGSSSNIGAGYDVHWYQQLPGTAPKLLIYDNNNRPSGVPDRFSGSKSGTSASLAISGLRSEDEADYYCQSYDSSLSAWLFGGGTKLTVLG
MFI [1]: 4000
binding to recombinant protein [2]: not to ICAM-2 or ICAM-3
survival and disease onset [3]: significantly enhanced survival and delayed disease onset
